One test addresses BRD4 BD1 BD1 (Homo sapiens, UniProt O60885, ZZ1-SO2H).
In test [1] the target is biotinylated YPEL5–WDR26^ΔCTLH complex (AviTag on WDR26^ΔCTLH) (UniProt Q9H7D7 1-661; P62699 1-121, biotin on the C-terminal AviTag (BirA)). Briefly: BLI.

The record followed here is publication PMC13355314 (2026).

B1: YPEL5 (protein)
chain: MGRIFLDHIGGTRLFSCANCDTILTNRSELISTRFTGATGRAFLFNKVVNLQYSEVQDRVMLTGRHMVRDVSCKNCNSKLGWIYEFATEDSQRYKEGRVILERALVRESEGFEEHVPSDNS
By Kd is commonly meant the constant that tells how readily two partners part at equilibrium. A low value points to higher affinity. B1 displayed a Kd with BRD4 BD1 BD1 of around 12 nM.

B2: BD1 domain of BRD3 (domain or fragment)
chain: not shown
With B2, the Kd in test [1] turned out to be 23.2 nM.

B3: BD1 domain of BRD2 (domain or fragment)
chain: not shown
B3: in test [1], the affinity, expressed as Kd, was 16.4 nM.
